In US20180327500A1 (SYMPHOGEN A S, published 2018):
Substitutions are numbered along the chain they refer to. Blank lines part the entries; values can stand above or below the binder they belong to.

What was measured:
Assay in all cases: flow cytometry on transfected HEK293 cells;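 note: antibodies applied at 50 µg/ml, binding called specific when fluorescence exceeds the mean signal on a negative control chicken or mouse MET construct plus four SD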
Mouse Blade 1-5 = molecular target: T1, Mouse Blade 1-5
T1 construct: human/mouse chimera on transfected HEK293 cells; also called AA 25-430
Protocol: (§1) Cut-off values defined as the average fluorescence signal of all antibodies tested at 50 μg/ml to the negative control chicken or mouse MET construct+four standard deviations were employed to discriminate background binding from specific binding for the domain exchange or blade exchange constructs.
T1 MET ECD-SV5-GPI fusion: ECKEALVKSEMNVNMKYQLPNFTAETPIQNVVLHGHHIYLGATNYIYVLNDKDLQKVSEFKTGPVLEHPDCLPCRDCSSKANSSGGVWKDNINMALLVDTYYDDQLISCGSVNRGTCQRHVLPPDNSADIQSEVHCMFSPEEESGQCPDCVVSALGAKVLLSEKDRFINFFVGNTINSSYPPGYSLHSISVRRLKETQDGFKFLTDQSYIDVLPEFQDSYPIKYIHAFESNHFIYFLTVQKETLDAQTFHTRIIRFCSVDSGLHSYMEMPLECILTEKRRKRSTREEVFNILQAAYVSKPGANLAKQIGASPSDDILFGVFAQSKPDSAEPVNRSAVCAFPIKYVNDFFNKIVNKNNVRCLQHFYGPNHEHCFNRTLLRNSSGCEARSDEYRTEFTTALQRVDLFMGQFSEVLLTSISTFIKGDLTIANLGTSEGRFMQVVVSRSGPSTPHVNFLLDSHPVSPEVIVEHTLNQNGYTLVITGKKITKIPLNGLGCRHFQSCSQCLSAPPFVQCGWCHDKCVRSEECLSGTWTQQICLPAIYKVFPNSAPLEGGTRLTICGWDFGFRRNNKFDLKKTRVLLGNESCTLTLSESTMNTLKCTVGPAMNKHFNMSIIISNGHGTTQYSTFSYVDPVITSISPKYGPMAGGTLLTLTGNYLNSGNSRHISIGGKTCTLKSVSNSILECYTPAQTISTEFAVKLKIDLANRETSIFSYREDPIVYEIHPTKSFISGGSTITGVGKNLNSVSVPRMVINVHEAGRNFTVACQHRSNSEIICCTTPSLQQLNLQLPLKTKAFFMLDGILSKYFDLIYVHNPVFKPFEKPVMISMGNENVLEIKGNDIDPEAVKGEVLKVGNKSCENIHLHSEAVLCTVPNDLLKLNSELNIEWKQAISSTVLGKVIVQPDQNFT

LS5 = molecular target: T2, LS5
T2 construct: human/mouse chimera on transfected HEK293 cells; also called AA 25-473
Protocol: as §1
T2 MET ECD-SV5-GPI fusion: T1 MET ECD-SV5-GPI fusion with Q408R, F409L, S410N, E411Q, V442L, S445T, G446A, P447H, S448L

Mouse MET = molecular target: T3, Mouse MET
T3 construct: on transfected HEK293 cells; also called murine MET ECD-SV5-GPI
Protocol: as §1
T3 MET ECD-SV5-GPI fusion: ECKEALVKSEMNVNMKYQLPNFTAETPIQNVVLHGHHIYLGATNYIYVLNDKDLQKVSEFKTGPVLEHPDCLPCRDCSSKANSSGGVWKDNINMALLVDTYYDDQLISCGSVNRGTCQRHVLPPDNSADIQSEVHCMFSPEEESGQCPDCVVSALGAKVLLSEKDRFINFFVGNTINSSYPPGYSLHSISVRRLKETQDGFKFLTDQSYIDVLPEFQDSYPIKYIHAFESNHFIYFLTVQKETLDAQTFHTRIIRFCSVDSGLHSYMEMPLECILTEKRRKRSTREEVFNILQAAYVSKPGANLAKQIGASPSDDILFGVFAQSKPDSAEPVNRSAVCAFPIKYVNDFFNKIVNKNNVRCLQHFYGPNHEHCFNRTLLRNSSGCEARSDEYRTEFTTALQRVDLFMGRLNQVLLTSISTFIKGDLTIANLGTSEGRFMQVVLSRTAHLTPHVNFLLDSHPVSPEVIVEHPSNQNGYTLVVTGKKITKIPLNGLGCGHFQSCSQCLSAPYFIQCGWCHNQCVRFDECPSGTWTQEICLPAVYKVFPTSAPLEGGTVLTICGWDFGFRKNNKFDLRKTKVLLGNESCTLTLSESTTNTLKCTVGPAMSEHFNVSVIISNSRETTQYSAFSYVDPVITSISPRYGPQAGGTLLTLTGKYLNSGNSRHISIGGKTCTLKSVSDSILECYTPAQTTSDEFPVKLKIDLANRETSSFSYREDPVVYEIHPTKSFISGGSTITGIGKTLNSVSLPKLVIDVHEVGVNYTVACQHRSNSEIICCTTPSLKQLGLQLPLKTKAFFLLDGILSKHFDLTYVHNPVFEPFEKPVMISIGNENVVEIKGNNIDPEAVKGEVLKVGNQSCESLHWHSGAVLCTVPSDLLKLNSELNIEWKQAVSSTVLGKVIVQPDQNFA

binding result (Mouse Blade 1-5): no binding (tested: 50 µg/ml)
binding result (LS5): no binding (tested: 50 µg/ml)
binding result (Mouse MET): no binding (tested: 50 µg/ml)
B1: humanized antibody 9338 (antibody, human IgG1, kappa, V domains shown)
VH: QVQLVQSGAEVKKPGSSVKVSCKASGYTFTSYWMHWVRQAPGQGLEWMGYINPSSGHIENNQKFKDRVTITADKSTSTAYMELSSLRSEDTAVYYCARGRFAYWGQGTLVTVSS
VL: EIVLTQSPATLSLSPGERATLSCSASSSVSSGYLYWYQQKPGQAPRLLIYSTSNLASGIPARFSGSGSGTDFTLTISSLEPEDFAVYYCHQWSSYPFTFGSGTKLEIKR
notes: also called Hu9338; hu9338

binding result (Mouse Blade 1-5): no binding (tested: 50 µg/ml)
binding result (LS5): no binding (tested: 50 µg/ml)
binding result (Mouse MET): no binding (tested: 50 µg/ml)
B2: humanized antibody 9006 (antibody, human IgG1, kappa, V domains shown)
VH: QVQLVQSGSELKKPGASVKVSCKASGYTFTNFRMNWVKQAPGQGLKWMGWINTYTGEPTYVDDLKGRFVFSLDTSVSTAYLQISSLKAEDTAVYYCARKGIARAMDYWGQGTTVTVSS
VL: DIVMTQSPDSLAVSLGERATINCKSSQSLLDSGNQKNYLAWYQQKPGQPPKLLIFGASTRESGVPDRFSGSGSGTDFTLTISSLQAEDVAVYYCQNDHSYPYTFGQGTKLEIKR
notes: also called Hu9006; hu9006
